# Data taken from the nanobody polyreactivity screen of Harvey et al. (2022).
# Test: yeast display, Sf9 membrane polyspecificity reagent, FACS + sequencing; frameworks hold sequencing errors
# Outline: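 Galactose-induced (36–48 hours) yeast carrying a synthetic nanobody display library were exposed to 10% biotinylated, detergent-solubilized Sf9 membrane reagent at 4 °C for 1 hour. FACS followed streptavidin microbead enrichment, using low and high (top ~1%) gates for expression (anti-HA) and reagent binding (streptavidin). Colony PCR, MiSeq 2 × 250 sequencing and CDR-length filtering followed. Labels for polyreactivity reflect the gate of origin.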
row,Sequence,polyreactivity (PSR sort gate)
1,QVQLVESGGGLVQAGGSLRLSCAASGSIFGEYTMGWYRPAPGKERELVAAIRSGGDTYYADSVKGRFTISRDNAKNTVYLQMNSLKPEDTAVYYCNAYWVRHYIMDYWGQGTQVTVSS,low polyreactivity
2,QVQLVESGGGLVQAGGSLRLSCAASGSIFGFYAMGWYIQAPGKERELVAAISDSGDSTYYADSVKGRFTISRDNAKNTVYLQMNSLKPEDTAVYYCATDGRSNYYWGDYWGQGTHVTVSS,low polyreactivity
3,QVQLVESGGGLVQAGGSLRLSCAASGSIFGFYAMGWYRQAPGKERELVAAITSGDSTHYADSVKGRFTISRDNAKNTVYLQMNSLKPEDTAVYYCAASAPYRYYRSAYYYWGQGTQVTVSS,low polyreactivity
4,QVQLVESGGGLVQAGGSLRLSCAASGSIFGFYGMGWYRQAPGKERELVAAISSRGGSTYYADSVKGRFTISRDNAKNTVYLQMNSLKPEDTAVYYCATERERTMGYWGQGTQVTVSW,high polyreactivity
5,QVQLVESGGGLVQAGGSLRLSCAASGSIFGGNAMGWSRQAPGKERELVAVITSGGSTYYADSVKGRFTISRDNAKNTVYLQMNSLKPEDTAVYYCNVDRLARKAHYDYWGQGTQVTVSS,high polyreactivity
6,QVQLVESGGGLVQAGGSLRLSCAASGSIFGGNAMGWYRPAPGTVRELVAAITSSGGSTYYADSVKGRFTMSRDNAKNTVYLQMNSLNPEDTAVYYSNKAYPGRTYDYWGQGTQVTVSS,high polyreactivity
7,QVQLVESGGGLVQAGGSLRLSCAASGSIFGGNAMGWYRQAPGKERELVATIDFSGTSTYYADSVKGRFTISRDHAKKTVYLQMHSLKPEDTSVSSCNARSYPDYIYWSQRYDYDFWGQGTQVTVSS,low polyreactivity
8,QVQLVESGGGLVQAGGSLRLSCAASGSIFGGNAMGWYRQAPGKETELVATITVRGGSTYYADSVKGRFRISRDNAKNSVYLQMNSLKPEDTAVYYCATEEVSRYRYGYWGQGTQVTVSS,low polyreactivity
9,QVQLVESGGGLVQAGGSLRLSCAASGSIFGGNDMGWSRQAPGKERAWVAAITATSGSTYYADSVKGRFTISRDNAKNTVYLQMNSLKPEDTAVYYCAAKPVGTYSRPHDYWGQGTQVTVSS,low polyreactivity
10,QVQLVESGGGLVQAGGSLRLSCAASGSIFGGNTMGWYRKAPGKERELVAAITNGGRTNYADSVKGRFTISRDNAKNTVYLQMNSLKPEDTAVYYCNAVTYSRRYAYYYWGQGTQVTVSS,high polyreactivity
11,QVQLVESGGGLVQAGGSLRLSCAASGSIFGGNTMGWYRQAPGKERELVAAISRSGGSTYYADSVKGRFTISRDNAKNTVYLQMNSLKPEDTAVYYCNRKQAGHAQGYDYWGQGTQVTVSS,high polyreactivity
12,QVQLVESGGGLVQAGGSLRLSCAASGSIFGGSGMGWYRQAPGKERELVAAITSGSSTYYADSVKGRFTISRDNAKNTVYLQMNSLKPEDTAVYYCAARPYPHSAYEGDYWGRGTQVTVSS,low polyreactivity
13,QVQLVESGGGLVQAGGSLRLSCAASGSIFGGYALGWYRQAPGKERELVAAISKTGGTTYYADSVKGRFTISRDNALNTVYLQMNSLKPEDTAVYYWNAPKRYYGSAYGYGYWGQGTQVTVSS,high polyreactivity
14,QVQLVESGGGLVQAGGSLRLSCAASGSIFGGYALGWYRQAPGNERELVAAITSSGGRTYYADSVKGRFTISRDNAKNTVYLQMNSLKPEDTAVYYCAARYTRWRYIYKDYDYWGQGTQVTVSS,high polyreactivity
15,QVQLVESGGGLVQAGGSLRLSCAASGSIFGGYAMGWYRQAPGKERELVAAISSSGGSTYYADSVKGRFTISRDNAKNTVYLQMHSLKPEDTAVYYCASSYHGRSYHLNYWGQGTQVTVSS,high polyreactivity
16,QVQLVESGGGLVQAGGSLRLSCAASGSIFGGYAMGWYRQAPGKERELVAAISYRGASTYYADSVKGRFTISRDNAKNTVYLQMNSLKPEDTAVYYCAARHDKRRQYYVGQSAFDYWGQGTQVTVSS,low polyreactivity
17,QVQLVESGGGLVQAGGSLRLSCAASGSIFGGYAMGWYRQAPGKERELVAAITSSGGRTYYADSVKGRFTISRDNAKNTVDLQMNSLKPEDTAVYYCAASPNYYYYYPMYYWGQGTQVTVSS,high polyreactivity
18,QVQLVESGGGLVQAGGSLRLSCAASGSIFGGYPMGWYRQAPGKERELVAAITYSAGNTYYADSVKGRFTISRDNAKNTFYVQMNSLKPEDTAVYYCNAVTKHRAITNMDYWGQGTQVTVSS,high polyreactivity
19,QVQLVESGGGLVQAGGSLRLSCAASGSIFGGYSMGWYRQAPGKEMELVARISSGGSTYYADSVKGRFTISRDNAKNTVYLQMNSLKQEDTAVYYCNAKTYTWWGLYEYWGQGTQVTVSS,high polyreactivity
20,QVQLVESGGGLVQAGGSLRLSCAASGSIFGGYTMGWYRQAPGKERELVAAISRRGGNTYYADSVKGRFTISRDNAKNTVYLQMNSMKPEDSAVYYCAVRWPSARIPVKLDYWGQGTQVNVSS,high polyreactivity
21,QVQLVESGGGLVQAGGSLRLSCAASGSIFGGYVMGWFRQAPGKERELVAAITSNGGITYADSVKGRFTISRDNAKNTVYLQMHSLKPEDTAVYYCAADSWFYGGEYKFGYYWGQGTQVTVSS,low polyreactivity
22,QVQLVESGGGLVQAGGSLRLSCAASGSIFGHYAMGWYRPAPGKERELVAGISSSSGGRTYYADSVKGRFTISRDNAKNTVYLQMNSLKPEDTAVDYCAAVYSVQVSRRAKYYYWGQGTQVTVSS,high polyreactivity

row,Sequence,polyreactivity (PSR sort gate)
1,QVQLVESGGGLVQAGGSLRLSCAASGSIFGINAMGWYRQAPGKERELVAAISWRGDSTSYADSVKGRFTISRDNAKNTVYLQMNSLKPEDTAVYYCAKGGTRFYVVGETYYYWGQGTQVTVSS,low polyreactivity
2,QVQLVESGGGLVQAGGSLRLSCAASGSIFGINVMGWYRQAPGKERELVAAISRSGSSTYYADSVKGRFTISRDNAKNTVYLQMNSLKPEDTAVYYCNADRSTWTVLVWEYDYWGQGTQVTVSS,low polyreactivity
3,QVQLVESGGGLVQAGGSLRLSCAASGSIFGIYAMGWYRQAPGKERELVAAIRRGGSTYYADSVKGRFTISRDNAKNTVYLQMNSLKPEDTAVYYCAARKYRLWGKGVDYDYWGQGTQVTVSS,high polyreactivity
4,QVQLVESGGGLVQAGGSLRLSCAASGSIFGIYAMGWYRQAPGKERELVAAIRRGGSTYYADSVKGRFTISRDNAKNTVYLQMNSLKPEDTAVYYCNTDYHRLLRSRPKYYYWGQGTQVTVSS,high polyreactivity
5,QVQLVESGGGLVQAGGSLRLSCAASGSIFGIYAMGWYRQAPGKERELVADITYSGGSTYYADSVKGRFTISRDNAKNTVYLQMNSLKPEDTAVYYCAADWVYVNAWTGGWTYEYWGQGTQVTVSS,high polyreactivity
6,QVQLVESGGGLVQAGGSLRLSCAASGSIFGKNAMGWYRQAPGKERELVAAISATGSRTYYADSVKGRFTISRDNAKNTVYLQMISLKPEETAVYSCTKLVRGVRPEEYDYGGQGTQVTVSS,high polyreactivity
7,QVQLVESGGGLVQAGGSLRLSCAASGSIFGKYAMGWYRQAPGKERELVAAISERTGRTYYADSVKGRFTISRDNAKNTVYLQMNSLKPEDTAVYYCNVVPLDSGWSTYGYDYWGQGTQVTVSS,high polyreactivity
8,QVQLVESGGGLVQAGGSLRLSCAASGSIFGKYTMGWYRQAPGKEREFVAAITSVGSTNYADSVKVRFTISRDNAKNTVYLQMNSLKPVDTAVYYCAADTIGYHYWYDYWGQGTQVTVSS,low polyreactivity
9,QVQLVESGGGLVQAGGSLRLSCAASGSIFGKYVMGWYRQAPGKERELVAALTFGGGSTYYADSVKGRFTISRDNAKNTVSLQMNTLKPEETAVYYCAAKSYDDRLYRRPRDYWGQGTQVTLSS,high polyreactivity
10,QVQLVESGGGLVQAGGSLRLSCAASGSIFGLNALGWSRQAPGKERELVAGITWSGGSSTYYADSVKGRFTISRDYAKNTVYLQMNSLKPEDTAVYNCAARRVFIPYYVRFYYWGQGTQVTVSS,high polyreactivity
11,QVQLVESGGGLVQAGGSLRLSCAASGSIFGLNAMGWYRQAPGKEREFVAAIDKNGAGTYYADSVKGRFTISRDNAKNTVYLQMNSLKPEDTAVYYCAAEYRSYGWYGYVVEYDYWGLGTQVTVSS,high polyreactivity
12,QVQLVESGGGLVQAGGSLRLSCAASGSIFGLNAMGWYRQAPGKERELVAAIDIIGGSTYYADSVKGRFTISRDNAKNTVYLQMNSLKPEDTAVYYCAAEADFWRFVEYDYWGQGSQVTVSS,low polyreactivity
13,QVQLVESGGGLVQAGGSLRLSCAASGSIFGLNAMGWYRQAPGKERELVAAINSDGDTYYADSVKGRFTISRDNAKNTVCLQMNSLKPEDTAVYYCAALQRRDHNGDYWGQGTQVTVSS,low polyreactivity
14,QVQLVESGGGLVQAGGSLRLSCAASGSIFGLYAMGWYRQAPGKERELVAAISSRGSSTYYADSVKGRFTISRDNAKNTVYIQMNSLKPEDTAVYYCNAYPFSRSVQLRDYWGQGTQVTVSS,low polyreactivity
15,QVQLVESGGGLVQAGGSLRLSCAASGSIFGLYAMGWYRQAPGKERELVAAITASDGSTYYADSVKGRFTISRDNAKNTVYLQMNSLKPEDTAVYYCNADAYSGYFLFDYWGQGTQVTVSS,low polyreactivity
16,QVQLVESGGGLVQAGGSLRLSCAASGSIFGLYGMGWYRQAPGKERELVAAISSGGTTNYADSVKGRFTISRDNAKNTVYLQMNSLKPEDTAVYYCAARYSRGAYIYYGWYGYGYWGQGTQVTVSS,low polyreactivity
17,QVQLVESGGGLVQAGGSLRLSCAASGSIFGNKAMGWYRQAPGKERELVAASSNDGDNSYYADSVKGRFTISRDKAKNTVYLQMNSLKPEDTAVYYCAADYVGVTSVRYDYWGQGTEVTVSS,low polyreactivity
18,QVQLVESGGGLVQAGGSLRLSCAASGSIFGNNAMGWYRQAPGKERELVAAISGSGGTRYADSVKGRFTISRDNAKNTVYFQLNSLKPEDTAVYYCSADDSWGGFHSPKAIGYDYWGQGTQVTVSS,low polyreactivity
19,QVQLVESGGGLVQAGGSLRLSCAASGSIFGNYVMGWYRQAPGKERELVAAITSDGSTYYADSVKGRFTISRDNAKNTVYLQMNSLKPEDTAVYYCNAVYEGLQSRWYKGGLYSFDYWGQGTQVTVSS,low polyreactivity
20,QVQLVESGGGLVQAGGSLRLSCAASGSIFGPNPMGWYRQAPGKERELVAAISWTGGRTYYADSVKGRFTISRDNAKNTVYLQMNSLKPEDTAVYYCAAARYLSGGYEKYDYWGQGTQVTVST,low polyreactivity
21,QVQLVESGGGLVQAGGSLRLSCAASGSIFGPYAMGWYRQAPGKERELVAAISRGSRTNYADSVKGRFTISRDNAKNTVYLQMNSLKPEDTAVYYCAARYVWRSTHHRGSTYDYWGQGTQVTVSS,high polyreactivity
